Test results taken from PMC7773637, “Short-Chain Dehydrogenase NcmD Is Responsible for the C-10 Oxidation of Nocamycin F in Nocamycin Biosynthesis” (Frontiers in Microbiology, 2020).

System: CC1=CC(O)C2OC1(C(C)C(C)O)OC(C(C)/C=C(C)/C=C/C(O)=C1C(=O)CNC1=O)C2C
Assay: HPLC product quantification, initial rates, Michaelis-Menten fit
Type: biochemical, Saccharothrix syringae
Conditions: 2 mM NAD^+, pH 8.5, 45°C, 0.2 μM NcmD

Substance: NcmD (Saccharothrix syringae)
- Km: 131 ± 13 µM
- kcat: 1.08 ± 0.083 s⁻¹
